Source: the supplement of paper PMC12636428

System: Saccharomyces cerevisiae
Assay: transcriptional activation domain activity (GFP:mCherry ratio, weighted mean of sorted bins, harmonized to initial dataset scale) (arbitrary fluorescence ratio units); higher = stronger transcriptional activation
Settings: beta-estradiol 1 µM; induction time 4 h
Summary of the method: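 Protein tiles carrying barcodes and fused to an estradiol-inducible synthetic transcription factor were placed at the URA3 locus of yeast diploids with a GFP reporter. Following 4 hours at 30 °C in SC with 1 uM beta-estradiol, cells were sorted into 8 GFP:mCherry bins, barcodes were sequenced, and tiles with fewer than 50 reads were discarded. Activation activity is given as the read-weighted mean of bin median fluorescence, averaged across barcodes and linearly mapped to the initial dataset scale.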

PAANNPTGTLSSDELTFTHDLIEKVFNCNDKLSDNYNTQILSNTEHPLLTSYK
transcriptional activation domain activity: 73500

GKRRFLNGFLSCLLPTCGISDPLLRYAACFTVIRCCFRSNVLVPAMMRALLET
transcriptional activation domain activity: 45100

AEAGTSKTAAKAEATPVEGTSAPVEGKAQKKEKKEKKPPAEEAGAGKKKGGAA
transcriptional activation domain activity: 16100

DPPKRGRGRPKGSKNKKSTGVAAAAPAPAAGPSTGEKRKRGRPPKPKPEGEAG
transcriptional activation domain activity: 43800

MSENVDPPSPHDKSEAPTKRGRGRPKGSKNKSAAAGAVEQEDPAPVIPRKRRL
transcriptional activation domain activity: 36300

ALRLCRSLLFLCFPFTPIHFFWGSYSDFPPFFFLPAFPRLTLSLLLFYLLPFS
transcriptional activation domain activity: 55100

YVGRSVLIHQSHGSFEILILWNHYPLLCFFFCHGRRRVFSARLSLLLFCLCRF
transcriptional activation domain activity: 54700

MLFFFSGLLFFLSLLSLVFLFALFFIRISTPTIRFRLWFFLLLLLLFSLFLLF
transcriptional activation domain activity: 45500

RLEKQGWFAYIKEFRIFLPCLWPTGSIRGKLCLVVLILDLVINRFLRVLTPRQ
transcriptional activation domain activity: 59800

KEDAGEAEAEGSGDKAEEAIAEKPKRGRKKAEPKEKAEPAAKPAVGRKKSVAE
transcriptional activation domain activity: 45700

MGEEDAKVGAGPALQVIVLGSGGGPQENNVTALLVRSVNSNWARGSMLALDAG
transcriptional activation domain activity: 36500

ILLRRAWTVNAEMLLHKFDPRLFPLYFRILYPTWDTCSIPAPSRLVGAAKQWL
transcriptional activation domain activity: 46700

GRSESQSANNNGNNARGGKTGGGEAAAGGKTSASRGPRGGRGAKNKGSGGSKG
transcriptional activation domain activity: 28700

VALACLLTVLPFLVVLGTFILSLTIYTFFLDRSIMVAFFHPFLHPFFFFSFFV
transcriptional activation domain activity: 25400

AWLIHCILLFPWSSKLFPSWCGHMTSCYEFYVLGAISVCNCAVVFVYWLILLV
transcriptional activation domain activity: 56600

AKADGKRGRTGTGARRGKGKKVTREARGRRKVKRRRGARAGKGSAGRERERGE
transcriptional activation domain activity: 34800

LYYTVIRLFHIYPCRDPLAANSTTFNKSLYLVWSFLCMLVYLAHISYLTLLPR
transcriptional activation domain activity: 54100

ILQCIQYFANFRRDSAWMKLIVWLLFLSFPGLFGLLPHFFVYRFLDTLHVLLI
transcriptional activation domain activity: 68900

MSFFLFFVSCLLLFFVFVLFLFFSFRSFLSSVPFPFRFCFLFLFALSLFFLLV
transcriptional activation domain activity: 41400

VPVNPLALSPETGGPKKLPVARVLVDDEEDEEAKKLSTKPRLVIVGGGWGAVG
transcriptional activation domain activity: 41900

MGYCFFLYIYIPFTLLFSNTCRLVGVFLSFYICMIGYSLLWLPNLWLAFFLIN
transcriptional activation domain activity: 37700

RDNSFLHALIHRFHEVHIVAWCIEKVNFMYLHPGVPFYVLCDCTRGPAIMVLH
transcriptional activation domain activity: 51300

MNCRIVWNRCCGGLVPRFLLFLWCFGTVGYYRYFFSMGLGILLLWYILVLTTV
transcriptional activation domain activity: 50600

LLHPDKREPIDEDIWTVIPRGIRCEMMTFDLHIWLRRLVECLYKCLLENLVPT
transcriptional activation domain activity: 46600

VGPLSLDIILNKYDQDTELCAIVHESRRMLVRFYDIVKQNAMVIYSVFLWIPT
transcriptional activation domain activity: 50900

SKPSSNGRSDCSKHSTGKDASNKKNNRGKSKKAKKKTAAAKANTTDNESDSSD
transcriptional activation domain activity: 33600

FYFSWIAQEKYTDAFLLKPLGHYLGTRQLNQENIFIAYYIFVLACHYTFLYVS
transcriptional activation domain activity: 33300

MALIAFFLLFYLINLLYSLKLFLQYFFFTFTIPYLYIAYAFFFILYSLFLVFS
transcriptional activation domain activity: 42900

DADEAEGAPDAAGEGAAKKKKKRKPRKKKKGGAGGGGGGGPKVQTSPPRVPIH
transcriptional activation domain activity: 11400

RFVTNILVILSDRVNMEQLLKRIRKKAADFYHFTDLWQWCCAQFVKLLRKVYN
transcriptional activation domain activity: 55100

KKGRRKENGEGGEEKGKGAGGRGEGEEAGRRSRIKGVGGKRRGAGRRRGRREG
transcriptional activation domain activity: 17100

NAIISNLMLGMLLFCGSLYLLITFLPILSSDCPYSTPMSVPWWRILRALGAVG
transcriptional activation domain activity: 37900

LGGLSRERFFVYVFTSAFLWYFFPGYLFLALSWFSWVTWIWPDDPVVSQLFGY
transcriptional activation domain activity: 39500

GCLLTFPNKIDWATLVIILFSETFTICLLLIKGFYWVISSAHKVGDRVLYYVA
transcriptional activation domain activity: 50800

GWVVILSSRCRIKTSVSRERLKMDVFWLIESIGLTVEYWRIVWDLRATYHFLR
transcriptional activation domain activity: 33000

FFPSFSFSFSSFSFLLFISSSYSFFLFFPSSYSFFLFFFFYLIPYLLDFFPFL
transcriptional activation domain activity: 50500

MVLISFKSISPITSPILPTYHHHHHSFHHSIHHLLLIYYKLILLFLFFLIFYL
transcriptional activation domain activity: 46800

FYGLYPDNAQTLGSAPKTPTMRLVKAYLKTILSNPESRKIFYFLVLNLSYMMV
transcriptional activation domain activity: 85300

KQYCVRPNSGRIEVGSEVEVQVLLQAMREDPPPDARCRDKFLVQSVAITPERD
transcriptional activation domain activity: 42800

AVLSLLCSLLNTTLKYNPASWRVPYDHVVFKDPKQILVTYCLQLLLVLILYPI
transcriptional activation domain activity: 37500

GSKGAMRARAEERGEGGEGGEREEGREGRGERRGGGRGGEGRERERGGREGRG
transcriptional activation domain activity: 25000

VAGVKSDWDASSDEEEKPVPVAERVNGASSQKSAASKSPSKVTPMPSKTAHLV
transcriptional activation domain activity: 21300

HSSIEWLMGWPAGLKLNKELALFLGDLFLWVIEYWSSCISALQPLLPHMVWFI
transcriptional activation domain activity: 39900

EPAEEEEEEDDDDEDDPEVRRKEELRARMAKMSAGMGGMGGMMNPFAAPVAPG
transcriptional activation domain activity: 62200

ALSTADGGRVPAKRARKAINCGPCRLSKLKCDRERPCSSCKLRGTTASCYQGQ
transcriptional activation domain activity: 34000

MVLVLLWTVEPFIFLFNLLLLILLMVWLPLILLFKLLFLNNITFLSFMIPNQL
transcriptional activation domain activity: 45000

MIIGMWLFCHVGSSFSVYHMFPLLYFRLLLCYLVFWSCFLLTFSKVSFSFLFA
transcriptional activation domain activity: 54400

MNVLTFFYVVGGVFFFFTISFALPGGYIVLDLSYYNHIICATYLLLLFEFMFY
transcriptional activation domain activity: 54200

TEQEAIQKKRKKRKIREDNGISTVLFALEEVCAIILHRMQHRNGVPHVTTLVF
transcriptional activation domain activity: 52100

MILIVFSLLLSFPMFLERVLFFPLSFLFFFSPSFCLSYTQPSPLTMPFFSYFC
transcriptional activation domain activity: 68300

DWYFDLPLWVFVCFFLFVFLTLMTFRTPSLTRYYCTVVYYLLGKWVGNCIVYT
transcriptional activation domain activity: 18200

KLYYLAFYSGNILRRDLNLIIGVGKNWNLPAFWAPLLRYVTCPILAIIYSMAY
transcriptional activation domain activity: 63600

PDRLDGRCVPDLSFFSVGDFTPISLVFFLSFPLLLFFFSFFFFFFFFFFFFFF
transcriptional activation domain activity: 37700

KQTAAQDSDEEGGGGKLKSKKEKEKEKKEREKQRKKEQAAKKKTAAPAPAKPE
transcriptional activation domain activity: 24400

MDAPQNNSRGNNARRNRNRGGNRQSTGGVTKQQSQQQSKPAAKPVNVQTTVVI
transcriptional activation domain activity: 47800
